According to PMC7614769:
Values joined by “and” are separate entries in the source; they are usually repeats but may differ in a detail not shown here. Identical values can stand only once.

Target: human FcμR ectodomain (human) (UniProt O60667)
Assay: BLI; FcμR (20 μg/ml) captured on AMC (anti-mouse IgG-Fc capture) biosensors by the anti-FcμR antibody RR-16; full-length or proteolysed IgM 0.08-10 nM in solution; PBS, 0.005% Tween 20, 25 °C; apparent Kd from response against IgM concentration, 1:1 binding model

Sequence of human FcμR ectodomain (human) (O60667 17-251): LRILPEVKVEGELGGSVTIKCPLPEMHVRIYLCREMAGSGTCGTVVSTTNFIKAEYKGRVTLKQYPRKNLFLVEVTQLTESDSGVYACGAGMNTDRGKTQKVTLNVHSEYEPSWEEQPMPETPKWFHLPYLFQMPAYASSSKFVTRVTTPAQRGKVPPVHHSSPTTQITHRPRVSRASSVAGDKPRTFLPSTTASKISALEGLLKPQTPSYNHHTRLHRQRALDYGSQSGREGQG
Sequence of Full-length IgM (myeloma), pentamer with J chain (P01591 whole entry, looked up): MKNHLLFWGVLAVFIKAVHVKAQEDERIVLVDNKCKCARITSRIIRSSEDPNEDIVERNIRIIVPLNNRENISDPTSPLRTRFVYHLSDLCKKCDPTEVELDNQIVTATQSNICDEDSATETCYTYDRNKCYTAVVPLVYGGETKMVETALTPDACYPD

Kd: 0.3 nM and 0.4 nM
Substance: Full-length IgM (myeloma), pentamer with J chain (from UniProt P01591 23-159) (antibody)
